From publication PMC10303025

Molecular target: T1, M2-1 transcription antiterminator (Human respiratory syncytial virus, UniProt P04545 1-194)
T1 sequence: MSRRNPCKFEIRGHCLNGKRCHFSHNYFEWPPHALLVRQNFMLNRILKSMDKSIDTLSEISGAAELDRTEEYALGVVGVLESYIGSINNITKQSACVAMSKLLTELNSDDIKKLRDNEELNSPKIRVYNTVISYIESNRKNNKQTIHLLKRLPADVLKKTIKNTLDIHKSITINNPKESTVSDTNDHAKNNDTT
Assay: not stated (EMSA and fluorescence polarization titrations mentioned); Kd may derive from earlier work [37]
Conditions: protein: recombinant; chain copies: 4; label: 5' 6-FAM; single strand

AUAAAGUAGUUAAUUAAAAA (ssRNA) [RNARSV20 (SH gene end 20-mer)] gave a Kd of 20 nM.
